Laboratory results from paper PMC8448823, “Structural basis of RNA polymerase inhibition by viral and host factors” (Nature Communications, 2021).

Columns and labels:
Conditions in all cases: both partners purified
[1] = biological target: T1, Rpo1″ subunit of Sulfolobus acidocaldarius RNA polymerase (Sulfolobus acidocaldarius, UniProt P11514 1-393); experiment: cryo-EM structure; RNAP incubated and cross-linked (BS3, 65 °C) in presence of a 20 molar fold excess of TFS4; map at 2.61 Å
T1 construct: Rpo1″, subunit of the Sulfolobus acidocaldarius RNA polymerase (upper jaw, trigger loop); Stood within the whole 13-subunit RNAP; source: part of the RNAP purified from Saci strain MW001
T1 sequence (P11514 whole entry): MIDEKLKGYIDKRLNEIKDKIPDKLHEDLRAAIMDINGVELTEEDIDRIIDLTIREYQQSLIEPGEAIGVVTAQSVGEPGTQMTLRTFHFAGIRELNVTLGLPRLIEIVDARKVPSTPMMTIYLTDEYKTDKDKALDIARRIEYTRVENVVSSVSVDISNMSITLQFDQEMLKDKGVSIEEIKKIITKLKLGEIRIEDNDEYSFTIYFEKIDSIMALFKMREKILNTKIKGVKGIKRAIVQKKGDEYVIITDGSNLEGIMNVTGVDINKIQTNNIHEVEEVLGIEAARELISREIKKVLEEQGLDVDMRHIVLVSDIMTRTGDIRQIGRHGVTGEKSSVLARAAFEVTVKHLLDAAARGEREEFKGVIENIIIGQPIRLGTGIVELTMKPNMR

[2] = biological target: T2, Rpo1′ subunit of Sulfolobus acidocaldarius RNA polymerase (Sulfolobus acidocaldarius, UniProt P11512 1-880); experiment: as above
T2 construct: Rpo1′, subunit of the Sulfolobus acidocaldarius RNA polymerase (clamp, rim helices, bridge helix); Stood within the whole 13-subunit RNAP; source: part of the RNAP purified from Saci strain MW001
T2 sequence (P11512 whole entry): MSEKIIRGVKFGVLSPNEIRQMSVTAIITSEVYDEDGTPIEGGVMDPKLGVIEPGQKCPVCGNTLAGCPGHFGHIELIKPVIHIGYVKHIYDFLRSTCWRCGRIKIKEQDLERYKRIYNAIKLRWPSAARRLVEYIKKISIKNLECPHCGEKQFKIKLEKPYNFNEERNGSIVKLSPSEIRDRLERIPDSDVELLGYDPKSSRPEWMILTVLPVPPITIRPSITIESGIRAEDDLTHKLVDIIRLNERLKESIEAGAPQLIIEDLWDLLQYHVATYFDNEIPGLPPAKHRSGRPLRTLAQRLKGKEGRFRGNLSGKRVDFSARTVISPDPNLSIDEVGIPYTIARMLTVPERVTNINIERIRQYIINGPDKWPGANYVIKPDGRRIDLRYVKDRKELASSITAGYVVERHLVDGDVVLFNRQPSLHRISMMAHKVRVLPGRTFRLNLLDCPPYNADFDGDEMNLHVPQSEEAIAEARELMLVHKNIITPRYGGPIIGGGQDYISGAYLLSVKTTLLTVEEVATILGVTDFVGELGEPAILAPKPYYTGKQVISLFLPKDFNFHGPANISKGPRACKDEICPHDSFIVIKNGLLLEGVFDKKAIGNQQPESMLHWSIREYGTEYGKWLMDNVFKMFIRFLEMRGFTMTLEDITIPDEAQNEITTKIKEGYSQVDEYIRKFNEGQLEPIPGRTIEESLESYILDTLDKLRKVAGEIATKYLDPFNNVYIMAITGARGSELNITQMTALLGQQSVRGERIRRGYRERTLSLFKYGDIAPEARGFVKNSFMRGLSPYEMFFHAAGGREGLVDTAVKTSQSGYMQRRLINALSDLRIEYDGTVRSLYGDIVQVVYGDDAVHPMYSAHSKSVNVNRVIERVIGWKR

[3] = biological target: T3, Rpo2 subunit of Sulfolobus acidocaldarius RNA polymerase (Sulfolobus acidocaldarius, UniProt P11513 1-1126); experiment: as above
T3 construct: Rpo2, subunit of the Sulfolobus acidocaldarius RNA polymerase (protrusion and lobe); Stood within the whole 13-subunit RNAP; source: part of the RNAP purified from Saci strain MW001
T3 sequence (P11513 whole entry): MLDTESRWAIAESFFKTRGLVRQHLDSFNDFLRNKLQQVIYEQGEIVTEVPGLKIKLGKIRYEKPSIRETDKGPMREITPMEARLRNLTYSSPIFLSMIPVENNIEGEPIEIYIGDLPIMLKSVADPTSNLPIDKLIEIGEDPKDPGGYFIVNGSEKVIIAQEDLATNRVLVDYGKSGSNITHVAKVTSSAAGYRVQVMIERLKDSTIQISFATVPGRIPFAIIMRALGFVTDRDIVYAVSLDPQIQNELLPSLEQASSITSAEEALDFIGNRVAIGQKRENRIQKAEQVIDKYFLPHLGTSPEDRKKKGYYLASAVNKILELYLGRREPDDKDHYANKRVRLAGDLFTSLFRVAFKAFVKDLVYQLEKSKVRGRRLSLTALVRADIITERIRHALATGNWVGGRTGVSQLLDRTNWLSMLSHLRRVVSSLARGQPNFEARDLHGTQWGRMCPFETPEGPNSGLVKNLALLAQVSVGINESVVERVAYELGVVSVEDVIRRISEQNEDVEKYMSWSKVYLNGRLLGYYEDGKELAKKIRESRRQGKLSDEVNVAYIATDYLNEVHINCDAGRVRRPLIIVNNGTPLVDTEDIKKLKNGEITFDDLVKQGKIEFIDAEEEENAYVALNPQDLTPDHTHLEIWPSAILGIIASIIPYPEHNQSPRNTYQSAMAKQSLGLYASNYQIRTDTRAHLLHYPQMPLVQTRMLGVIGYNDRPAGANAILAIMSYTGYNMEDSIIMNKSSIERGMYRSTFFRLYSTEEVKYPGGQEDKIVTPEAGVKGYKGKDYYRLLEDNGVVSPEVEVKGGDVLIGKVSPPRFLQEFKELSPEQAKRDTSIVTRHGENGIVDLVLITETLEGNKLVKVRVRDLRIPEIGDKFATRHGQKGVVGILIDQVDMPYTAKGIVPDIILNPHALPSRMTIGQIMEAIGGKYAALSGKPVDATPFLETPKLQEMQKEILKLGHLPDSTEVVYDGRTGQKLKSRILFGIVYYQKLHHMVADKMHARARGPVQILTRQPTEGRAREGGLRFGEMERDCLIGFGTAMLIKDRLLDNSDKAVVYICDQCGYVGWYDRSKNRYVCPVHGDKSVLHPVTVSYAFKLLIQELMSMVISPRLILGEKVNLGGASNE

[4] = biological target: T2, Rpo1′ subunit of Sulfolobus …; experiment: cryo-EM structure; apo-RNAP cross-linked with 2 mM BS3 for 5 min at 65 °C; 20 mM Hepes pH 7.0, 200 mM NaCl, 5 mM MgCl2; map at 2.88 Å
[5] = biological target: T2, Rpo1′ subunit of Sulfolobus …; experiment: cryo-EM structure; RNAP incubated with a 10-fold excess of RIP for 5 min at 65 °C, then cross-linked with 2 mM BS3; 20 mM Hepes pH 7.0, 200 mM NaCl, 5 mM MgCl2; map at 3.27 Å
[6] = biological target: T3, Rpo2 subunit of Sulfolobus …; experiment: as above

B1: Sso TFS4 (natural protein)
chain: MRFCPKCGSFLKVKGNKMVCSKCGYSDHDVEKVILKENVAHENDKTIIADGETIEGRVAISLCPRCGSVRAILLNKKKRLYRCMTCNFVYNI
notes: TFS4, paralogue of the transcript cleavage factor TFS; two zinc-ribbon domains ZR^N and ZR^C joined by a linker; expressed without tag; source: E. coli BL21 pLysS, purified (heat step 65 °C, HiTrap Q, Superose 12)
[1]
  binding result: binds
[2]
  binding result: binds
[3]
  binding result: binds

B2: Rpo8 subunit of Sulfolobus acidocaldarius RNA polymerase (natural protein)
chain: MMQGTCKISSIEKGALKNLYVVKMDCDNDLKIEFDITKELSIFSKDEEVTFIISREKPEYSEKDFCAHGYLFLERQQEDGSFIDEISLYGLIVKILSKNGLINSKLFKMMDHVYYCVKKKA
notes: Rpo8, subunit of the Sulfolobus acidocaldarius RNA polymerase; holds the conserved GGLLM motif; Stood within the whole 13-subunit RNAP; source: part of the RNAP purified from Saci strain MW001
[4]
  binding result: binds

B3: ATV RIP (RNAP Inhibitory Protein, ORF145) of Acidianus two-tailed virus (natural protein, Acidianus two-tailed virus (ATV))
chain: MKNMLHPQKYETHVLDDLMEFYEGVIGYPEIDLRLAGEEAWLKGVNPELAEAVKKIIKTIRRYLEGSPYDGSEKPIPRYIIAEIFSQIAPEVQLLVNALDTEGKYGFLKHIKKLNLNSLAMLSKNYNENDKLWKELENEGYVYLE
notes: RIP (ORF145) of Acidianus two-tailed virus (ATV); 145 aa printed; residues 10–127 resolved in the RNAP–RIP structure; source: E. coli BL21 pLyS, purified (heat step 60 °C, Ni-column, TEV cleavage, second Ni-column); not shown: 6×His, N-terminal, cleaved
[5]
  binding result: binds
[6]
  binding result: binds
